Assay results published in FireProtDB (doi:10.1038/12277).

B1: Ribonuclease HI, P0A7Y4 (parent)
chain: MLKQVEIFTDGSCLGNPGPGGYGAILRYRGREKTFSAGYTRTTNNRMELMAAIVALEALKEHCEVILSTDSQYVRQGITQWIHNWKKRGWKTADKKPVKNVDLWQRLDAALGQHQIKWEWVKGHAGHPENERCDELARAAAMNPTLEDTGYQVEV

Variants of: B1
Settings: Escherichia coli (strain K12), pH 5.5, CD, Potassium phosphate 2 mM, KF 5 mM, reversible: yes, structure 2RN2, whole UniProt chain shown; for ddG of mutation (higher = less stable) / denaturant m value / unfolding free energy: 25 °C, Urea; for Tm / change of melting temperature, mutant - wild type (higher = more stable): Thermal

For MLKQVEIFTAGSCLGNPGPGGYGAILRYRGREKTFSAGYTRTTNNRMELMAAIVALEALKEHCEVILSTDSQYVRQGITQWIHNWKKRGWKTADKKPVKNVDLWQRLDAALGQHQIKWEWVKGHAGHPENERCDELARAAAMNPTLEDTGYQVEV [D10A], the “ddG of mutation (higher = less stable)” value was -3.3 kcal/mol, the denaturant m value was 2.1 kcal/mol/M and the unfolding free energy was 13 kcal/mol. The Tm was 62.6 °C and the “change of melting temperature, mutant - wild type (higher = more stable)” value (“change of melting temperature, mutant” for short) was 14.8 °C.

With MLKQVEIFTDGSCLGNPGPGGYGAILAYRGREKTFSAGYTRTTNNRMELMAAIVALEALKEHCEVILSTDSQYVRQGITQWIHNWKKRGWKTADKKPVKNVDLWQRLDAALGQHQIKWEWVKGHAGHPENERCDELARAAAMNPTLEDTGYQVEV [R27A] the “ddG of mutation (higher = less stable)” value was 2.2 kcal/mol, the denaturant m value was 2 kcal/mol/M and the unfolding free energy was 7.5 kcal/mol. For the same variant, the Tm was 42.2 °C and the “change of melting temperature, mutant” value was -5.6 °C.

With MLKQVEIFTDGSCLGNPGPGGYGAILRYRGREKTFSAGYTRTTNNRMELMAAIVALEALKEHCEVILSTDSQYVRQGITQWIHNWKKRGWKTADKKPVKNVDLWGRLDAALGQHQIKWEWVKGHAGHPENERCDELARAAAMNPTLEDTGYQVEV [Q105G] the “ddG of mutation (higher = less stable)” value was 2.2 kcal/mol, the denaturant m value was 2.1 kcal/mol/M and the unfolding free energy was 7.5 kcal/mol. For the same variant, the Tm was 38.2 °C and the “change of melting temperature, mutant” value was -9.6 °C.

With MLKQVEIFTDGSCLGNPGPGGYGAILRYRGREKTFSAGYTRTTNNRMELMAAAVALEALKEHCEVILSTDSQYVRQGITQWIHNWKKRGWKTADKKPVKNVDLWQRLDAALGQHQIKWEWVKGHAGHPENERCDELARAAAMNPTLEDTGYQVEV [I53A] the Tm was 35.7 °C and the “change of melting temperature, mutant” value was -12.1 °C.
